According to paper PMC10827748:

Biological target: Smac/DIABLO, endogenous (human (endogenous in HEK293F and HEK293T))
Test: cryo-EM structure; FLAG-BIRC6 purified from HEK293F, cross-linked with 0.01% glutaraldehyde; global map 3.6 Å; a class with endogenous co-purified Smac in the central cavity at 4.7 Å

stoichiometry N: 2
Substance: Smac/DIABLO, endogenous (natural protein)
